The text below walks through data of publication PMC4538836, “Human DNA ligase III bridges two DNA ends to promote specific intermolecular DNA end joining”.

The target of data set [1] is T1, DNA ligase III beta (LigIII) (Homo sapiens, UniProt P49916-4 1-862).
T1 sequence: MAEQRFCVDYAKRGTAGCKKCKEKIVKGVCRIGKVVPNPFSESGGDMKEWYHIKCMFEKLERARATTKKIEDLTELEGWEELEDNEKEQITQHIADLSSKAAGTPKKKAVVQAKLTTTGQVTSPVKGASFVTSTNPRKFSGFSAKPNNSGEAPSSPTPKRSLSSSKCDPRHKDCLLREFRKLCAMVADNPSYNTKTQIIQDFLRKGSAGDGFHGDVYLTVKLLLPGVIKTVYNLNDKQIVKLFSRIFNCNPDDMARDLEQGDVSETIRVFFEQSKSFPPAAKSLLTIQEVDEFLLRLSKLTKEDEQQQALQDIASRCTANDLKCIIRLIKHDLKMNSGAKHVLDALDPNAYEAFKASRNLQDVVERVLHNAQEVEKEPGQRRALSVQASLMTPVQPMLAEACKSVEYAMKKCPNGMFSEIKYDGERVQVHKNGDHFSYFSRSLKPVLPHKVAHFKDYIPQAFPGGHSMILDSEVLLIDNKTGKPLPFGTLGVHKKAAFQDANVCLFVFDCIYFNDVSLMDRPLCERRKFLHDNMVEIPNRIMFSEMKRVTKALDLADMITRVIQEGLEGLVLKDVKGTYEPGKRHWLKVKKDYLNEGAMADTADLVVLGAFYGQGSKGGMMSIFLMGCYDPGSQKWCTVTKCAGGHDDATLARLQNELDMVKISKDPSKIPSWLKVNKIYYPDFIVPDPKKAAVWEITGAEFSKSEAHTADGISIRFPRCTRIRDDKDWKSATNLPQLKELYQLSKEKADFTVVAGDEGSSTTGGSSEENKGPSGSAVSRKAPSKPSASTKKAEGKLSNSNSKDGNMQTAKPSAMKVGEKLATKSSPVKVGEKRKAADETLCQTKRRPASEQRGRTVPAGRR
Put plainly: fluorescence anisotropy; stoichiometric titration, 1 LigIII : 2 DNA; 50 mM HEPES-NaOH pH 7.5, 80 mM NaCl, 5 mM MgCl2, 1 mM DTT, 1 mM ATP, 50 ug/ml BSA; anisotropy 25 C (25 nM DNA), TR-FRET room temperature, pull-down 4 C. Conditions: protein: recombinant; tags: N-terminal His (pQE32); label: 5'-FITC on strand 1; blunt. (In fluorescence polarisation assays a small probe gives low polarisation when free and higher when bound to something large.)

Data set [2] deals with T1, DNA ligase III beta (LigIII). As to the kind of experiment: TR-FRET; DNA bridging; 5 mM Mg2+, 1 mM ATP; 50 mM HEPES-NaOH pH 7.5, 80 mM NaCl, 5 mM MgCl2, 1 mM DTT, 1 mM ATP, 50 ug/ml BSA; anisotropy 25 C (25 nM DNA), TR-FRET room temperature, pull-down 4 C. The following applies: protein: recombinant; tags: N-terminal His (pQE32); label: 5'-biotin on S1; 5'-FITC on S3; two blunt duplexes.

B1: FITC blunt duplex (dsDNA)
DNA 1: CATGATTACGG
DNA 2: CCGTAATCATG
On to B1, for which the binding result in data set [1] is given as “binds”.

B2: bridged pair, blunt ends (dsDNA)
DNA 1: AGTGAATTCGAGCTCG
DNA 2: CGAGCTCGAATTCACT
DNA 3: CATGATTACGG
DNA 4: CCGTAATCATG
In the case of B2, the binding result in data set [2] is recorded as “binds”.
